Reference: patent publication US20250206818A1 (AGENUS, published 2025)
Numbering of substitutions follows the chain as printed. Names may count otherwise. Blank lines part the entries; values can stand above or below the binder they belong to.

Experiments:
recombinant human LAG-3 = molecular target: T1, recombinant human LAG-3 (human, UniProt P18627 23-450, limits assumed); assay: surface plasmon resonance (data not shown)
T1 sequence (looked up): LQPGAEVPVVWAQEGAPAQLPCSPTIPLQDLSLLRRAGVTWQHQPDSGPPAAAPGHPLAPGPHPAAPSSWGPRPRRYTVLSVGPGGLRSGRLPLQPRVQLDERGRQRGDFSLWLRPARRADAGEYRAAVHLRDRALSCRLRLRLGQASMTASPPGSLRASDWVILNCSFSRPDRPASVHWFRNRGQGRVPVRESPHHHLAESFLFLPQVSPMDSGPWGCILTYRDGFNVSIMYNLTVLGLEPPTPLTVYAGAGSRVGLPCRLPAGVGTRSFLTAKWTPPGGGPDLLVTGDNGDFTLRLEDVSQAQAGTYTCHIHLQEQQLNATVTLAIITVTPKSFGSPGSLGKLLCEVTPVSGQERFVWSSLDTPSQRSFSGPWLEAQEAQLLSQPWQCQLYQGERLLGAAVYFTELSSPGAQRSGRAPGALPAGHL

human LAG-3 = molecular target: T2, human LAG-3 (human, UniProt P18627 23-450, limits assumed); assay: Fab phage display selection; periplasmic extracts screened by ELISA or flow cytometry
T2 construct: Selections used human LAG-3-Fc, human LAG-3-6His, a 30 aa LAG-3 peptide and/or cells with cynomolgus LAG-3; also called CD223
T2 sequence (looked up): T1 sequence (looked up)
Source text: Anti-LAG-3 antibodies were identified by generation and selection of an immunized Fab phage display library. […] Per mouse, a Fab library was then generated by random-primed cDNA using total RNA as a template to amplify variable regions from mouse antibody genes. Heavy and kappa chain amplicons were combined and cloned into phagemid vectors. […] The 30 amino acid human LAG-3 peptide is a biotinylated peptide comprising the amino acid sequence of […] (SEQ ID NO: 199). Periplasmic extracts of selected Fab clones were then screened by ELISA or flow cytometry. Antibody sequencing and off-rate analysis were then performed on anti-LAG-3 Fabs.

B1: P13B02-12 (antibody, IgG1, V domains shown)
VH: QVQLVQSGAEVKKPGASVKVSCKASGFNIKDTYIHWVRQAPGQGLEWMGEIDPANDNTKYDPKFQGRVTITADTSSNTVYMELSSLRSEDTAVYYCATYYYRYDVGGFDYWGQGTLVTVSS
VL: EIVLTQSPGTLSLSPGERATLSCSVSSSISSSNLHWYQQKPGQAPRLLIYGTSNLASGIPDRFSGSGSGTSYTLTISRLEPEDFAVYYCQQWSSYPFTFGQGTKVEIK
notes: Humanized; generated as full length IgG1
binding result (recombinant human LAG-3): binds

B2: P13B02-22 (antibody, IgG1, V domains shown)
VH: B1 VH with L4M, V5K, K12V, K23T, M48I, M81L, E82Q
VL: B1 VL
notes: as for B1
binding result (recombinant human LAG-3): binds

B3: P13B02-34 (antibody, IgG1, V domains shown)
VH: B1 VH with V5K, S76T, N77S, R102K
VL: B1 VL with S71D, Y72F
notes: as for B1
binding result (recombinant human LAG-3): binds

B4: P13B02-18 (antibody, IgG1, V domains shown)
VH: B1 VH with L4M, V5K, K23T
VL: B1 VL with V3L, Y37F
notes: as for B1
binding result (recombinant human LAG-3): binds

B5: P13B02-19 (antibody, IgG1, V domains shown)
VH: B1 VH with L4M, V5K, K23T
VL: B1 VL with V3L, Y37F, L48W, I59V
notes: as for B1
binding result (recombinant human LAG-3): binds

B6: P13B02-37 (antibody, IgG1, V domains shown)
VH: B1 VH with L4M, V5K, K23T, R102K
VL: B1 VL with S71D, Y72F
notes: as for B1
binding result (recombinant human LAG-3): binds

B7: P13B02-03 (antibody, IgG1, V domains shown)
VH: B1 VH with I70M, A72R, S76T, N77S, T98R
VL: B1 VL with V3L, Y37F
notes: as for B1
binding result (recombinant human LAG-3): binds

B8: P13B02-33 (antibody, IgG1, V domains shown)
VH: B1 VH with L4M, V5K, K23T, S76T, N77S, R102K
VL: B1 VL with S71D, Y72F
notes: as for B1
binding result (recombinant human LAG-3): binds

B9: P13B02-31 (antibody, IgG1, V domains shown)
VH: B1 VH with L4M, K23T, S76T, N77S, R102K
VL: B1 VL with S71D, Y72F
notes: as for B1
binding result (recombinant human LAG-3): binds

B10: P13B02-14 (antibody, IgG1, V domains shown)
VH: B1 VH
VL: B1 VL with V3L, Y37F, L48W, I59V
notes: as for B1
binding result (recombinant human LAG-3): binds

B11: P13B02-10 (antibody, IgG1, V domains shown)
VH: B1 VH with S76T, N77S
VL: B1 VL with V3L, S22T, Y37F, A44S, L48W, I59V
notes: as for B1
binding result (recombinant human LAG-3): binds

B12: P13B02-36 (antibody, IgG1, V domains shown)
VH: B1 VH with R102K
VL: B1 VL with S71D, Y72F
notes: as for B1
binding result (recombinant human LAG-3): binds

B13: P13B02-02 (antibody, IgG1, V domains shown)
VH: B1 VH with I70M, A72R, S76T, N77S, T98R
VL: B1 VL
notes: as for B1
binding result (recombinant human LAG-3): binds

B14: P13B02-01 (antibody, IgG1, V domains shown)
VH: B1 VH with I70M, A72R, S76T, N77S, T98R
VL: B1 VL with S71D, Y72F
notes: as for B1
binding result (recombinant human LAG-3): binds

Second part, the binder after the results:

binding result (recombinant human LAG-3): binds
B15: P13B02-30 (antibody, V domains shown)
VH: B1 VH with L4M, S76T, N77S, R102K
VL: B1 VL with S71D, Y72F
notes: Humanized full length IgG1; made in three versions (G1m17; G1m17 N297A; G1m3 N297A)

binding result (recombinant human LAG-3): binds
B16: P13B02-28 (antibody, IgG1, V domains shown)
VH: B1 VH with S76T, N77S, R102K
VL: B1 VL with S71D, Y72F
notes: as for B1

binding result (recombinant human LAG-3): binds
B17: P13B02-11 (antibody, IgG1, V domains shown)
VH: B1 VH
VL: B1 VL with S71D, Y72F
notes: as for B1

binding result (recombinant human LAG-3): binds
B18: P13B02-24 (antibody, IgG1, V domains shown)
VH: B1 VH with L4M, V5K, K12V, K23T, M48I, M81L, E82Q
VL: B1 VL with V3L, Y37F, L48W, I59V
notes: as for B1

binding result (recombinant human LAG-3): binds
B19: P13B02-05 (antibody, IgG1, V domains shown)
VH: B1 VH with I70M, A72R, S76T, N77S, T98R
VL: B1 VL with V3L, S22T, Y37F, A44S, L48W, I59V
notes: as for B1

binding result (recombinant human LAG-3): binds
B20: P13B02-29 (antibody, IgG1, V domains shown)
VH: B1 VH with K23T, S76T, N77S, R102K
VL: B1 VL with S71D, Y72F
notes: as for B1

binding result (recombinant human LAG-3): binds
B21: P13B02-20 (antibody, IgG1, V domains shown)
VH: B1 VH with L4M, V5K, K23T
VL: B1 VL with V3L, S22T, Y37F, A44S, L48W, I59V
notes: as for B1

binding result (recombinant human LAG-3): binds
B22: P13B02-23 (antibody, IgG1, V domains shown)
VH: B1 VH with L4M, V5K, K12V, K23T, M48I, M81L, E82Q
VL: B1 VL with V3L, Y37F
notes: as for B1

binding result (recombinant human LAG-3): binds
B23: P13B02-04 (antibody, IgG1, V domains shown)
VH: B1 VH with I70M, A72R, S76T, N77S, T98R
VL: B1 VL with V3L, Y37F, L48W, I59V
notes: as for B1

binding result (recombinant human LAG-3): binds
B24: P13B02-15 (antibody, IgG1, V domains shown)
VH: B1 VH
VL: B1 VL with V3L, S22T, Y37F, A44S, L48W, I59V
notes: as for B1

binding result (recombinant human LAG-3): binds
B25: P13B02-09 (antibody, IgG1, V domains shown)
VH: B1 VH with S76T, N77S
VL: B1 VL with V3L, Y37F, L48W, I59V
notes: as for B1

binding result (recombinant human LAG-3): binds
B26: P13B02-21 (antibody, IgG1, V domains shown)
VH: B1 VH with L4M, V5K, K12V, K23T, M48I, M81L, E82Q
VL: B1 VL with S71D, Y72F
notes: as for B1

binding result (recombinant human LAG-3): binds
B27: P13B02-35 (antibody, IgG1, V domains shown)
VH: B1 VH with V5K, K23T, S76T, N77S, R102K
VL: B1 VL with S71D, Y72F
notes: as for B1

binding result (recombinant human LAG-3): binds
B28: P13B02-08 (antibody, IgG1, V domains shown)
VH: B1 VH with S76T, N77S
VL: B1 VL with V3L, Y37F
notes: as for B1

binding result (recombinant human LAG-3): binds
B29: P13B02-32 (antibody, IgG1, V domains shown)
VH: B1 VH with L4M, V5K, S76T, N77S, R102K
VL: B1 VL with S71D, Y72F
notes: as for B1

binding result (recombinant human LAG-3): binds
B30: P13B02-13 (antibody, IgG1, V domains shown)
VH: B1 VH
VL: B1 VL with V3L, Y37F
notes: as for B1

binding result (recombinant human LAG-3): binds
B31: P13B02-17 (antibody, IgG1, V domains shown)
VH: B1 VH with L4M, V5K, K23T
VL: B1 VL
notes: as for B1

binding result (human LAG-3): binds
B32: P05E03 Fab (Fab, V domains shown)
VH: QVQLKESGAELVKPGASVELSCTASGFNIRDTYMYWVKQRPEQGLEWIGRIDPANGNTKFDPKFQDRATMTADTSSNTAYLQLSSLTSEDTAVYYCTTYFYRYDVGGFDYWGQGTTLTVS
VL: EIVLTQSPALMAASPGEKVTITCSVSSSISSSNLHWYQQKSGTSPKLWIYGTSNLASGVPVRFSGSGSGTSYSLTISSMEAEDAATYYCQQWSSYPFTFGSGTKLEIK
notes: Murine Fab, periplasmic extract

binding result (human LAG-3): binds
B33: P05E01 Fab (Fab, V domains shown)
VH: DVQLVESGAELVKPGASVKLSCTASGFTIKDTYIHWVKQRPEQGLEWIGEIDPANGNTKYDPKFQGKATITADTSSNTAYLQLSSLTSEDTAVYYCATYYYRYDVGGFDYWGQGTTLTVS
VL: B32 VL with E1D, Y37F, S78N, S93N, F97L, S101A, I107L
notes: as for B32
